Our source for the self-cleavage values is the RNAGym collection of RNA variant scans (doi:10.7554/elife.90254).

Sequences and labels used below:
B1: OR4K15 (parent)
chain: GUUAACGGUCAUAGGCCAUGGAAACUAGGAGCACCAUUUCGCUGCCAGUGAAGAAAUGAACAAAGAAAAUCUGGGCCAGGCAGGCAUCAAAAGAAAUAGUCUUGCGCUCAACCAGAAAGUCUGUAAUCAUUUUAAGGGUA

The variants in the data set derive from B1. Put plainly: self-cleavage, relative activity (ratio to wild type); higher = more cleavage; in vitro, sequencing; the parent is a self-cleaving ribozyme.
Consider A89G U97A, for which the self-cleavage came to 0.88. Regarding G84A A96G, the self-cleavage is 2.43. For the variant G84A A96U, the self-cleavage is 2.46. To A89G A96U belongs 1.27; to A89G A96G, 0.83. To A86G A96G belongs 0.71; to A86G A96U, 1.37; to A86G A90G, 1.13. As to A89G U120C, the self-cleavage stood at 0.65. The same measure for A86G G137A: 1.83; for G84U A114G: 0.45; for A86G A110G: 0.16. For A86C U102C, the self-cleavage is 1.29. In the case of A82U U127A, the self-cleavage was found to be 0.04. On to U87C U108G, for which the self-cleavage amounted to 0.02. Take A90G U124C: the self-cleavage amounted to 0.78. On to A86G U97A, for which the self-cleavage came to 0.97. With G84U U108C, the self-cleavage amounted to 0.02.

In the case of G83A A89U, the self-cleavage worked out at 1.82.

With A89U U102A, the self-cleavage came out at 0.98.

In the case of U87C A95C, the self-cleavage was 0.32.

Consider U87C A95G, for which the self-cleavage came to 1.35. Consider A86G A118U, for which the self-cleavage was 0.52. The same measure for A86G A118G: 1.45.

With C85U A116U, the self-cleavage stood at 0.17. For C88A U130C, the self-cleavage worked out at 1.42. The same measure for U87C A90C: 0.98. With U87C A90G, the self-cleavage was determined as 0.3. Turning to U87C U103C, the self-cleavage came to 0.95.

On to U87C U103G, for which the self-cleavage was 0.01. In the case of U87C A129G, the self-cleavage is 1.14.

Turning to U87C A129U, the self-cleavage came out at 0.73. Take A90U A111U: the self-cleavage stood at 0.11. As to A90G A110G, the self-cleavage worked out at 0.1. Regarding A86G U124A, the self-cleavage turned out to be 0.4. Turning to A86G U131C, the self-cleavage amounted to 1.23.

In the case of A89G U124C, the self-cleavage was 0.93. In the case of A86C A114G, the self-cleavage stood at 0.24. Regarding A89G A90G, the self-cleavage amounted to 0.71. Regarding A86G C109U, the self-cleavage turned out to be 0.22. Regarding G84A A86G, the self-cleavage amounted to 1.73. As for A86G A135U, the self-cleavage is 2.39.

With U87C G138A, the self-cleavage is 1.2.

Regarding U87A A118G, the self-cleavage was 1.26. Consider A89G A116U, for which the self-cleavage came out at 0.31. With A89G A116G, the self-cleavage was 0.7. To A89C U139C belongs 1.52; to A86U U120C, 1.11. For A86G A89C, the self-cleavage came to 0.67.

For A86G A89G, the self-cleavage worked out at 1.42. For U87C A117G, the self-cleavage stood at 0.7. Consider U87C A117C, for which the self-cleavage was 0. To A89U U139A belongs 1.49; to A86U A91U, 1.77; to A90U A117G, 1.99. In the case of U87C U122C, the self-cleavage is 1.07. For the variant G84C A89G, the self-cleavage was found to be 0.34. In the case of U87G U108C, the self-cleavage amounted to 0.02.

In the case of A86G A111U, the self-cleavage is 0.11. To A86G A111G belongs 0.02. As for G83A C109U, the self-cleavage stood at 0.71. For A90G A91G, the self-cleavage worked out at 0.55. The same measure for U87C A89G: 1.73; for A86G A129U: 0.57. Turning to A82U A111U, the self-cleavage is 0.04. For C88A A111G, the self-cleavage amounted to 0. The same measure for U87A A95G: 0.76. The same measure for U87A A129C: 0.8; for A82U A95G: 0.51. For the variant A82U A95C, the self-cleavage worked out at 0.12. For A82U A125G, the self-cleavage was determined as 0.03. For the variant A82U A125C, the self-cleavage was 0.29. The same measure for A89U A95G: 2.26; for A82U U133C: 0.07; for C85U A140G: 1.26. As for A82U A117G, the self-cleavage came to 0.28. To A82U A117C belongs 0.04. For the variant A82U A117U, the self-cleavage amounted to 0.23. To A86G G115A belongs 0.14; to C85U A91G, 0.52. For C85U U120G, the self-cleavage was 0.64.

As for G84A A117G, the self-cleavage came to 2.38. Consider A90G G138U, for which the self-cleavage turned out to be 1.3. Consider A90G A134U, for which the self-cleavage was determined as 1.49. In the case of A90G A134G, the self-cleavage is 1.35.

As for A86U A98G, the self-cleavage was 0.37. For A86G U120C, the self-cleavage stood at 0.35.

In the case of A82U C101U, the self-cleavage turned out to be 0.04. For U87A A92G, the self-cleavage came to 2.61. For A82U A116G, the self-cleavage was determined as 0.09. Regarding A86G G104A, the self-cleavage was determined as 0.02.

As to A89G A94G, the self-cleavage was found to be 1.39. A89G A94U: the self-cleavage came to 0.86.

For A90G U102A, the self-cleavage is 0.09. Consider A90G U102C, for which the self-cleavage was 1.97. As to A86U U139A, the self-cleavage stood at 1.53. Consider G83U U122A, for which the self-cleavage amounted to 0.15.

With A89C U103C, the self-cleavage is 0.8.

Regarding U87C U131A, the self-cleavage is 0.39. For U87C U131C, the self-cleavage amounted to 1.07. To G83A A86U belongs 2.81. As for G83A A86G, the self-cleavage turned out to be 2.15. For A86G U108C, the self-cleavage was 0.02.

Turning to A89G U139A, the self-cleavage was 1.67.

As to A89G U139C, the self-cleavage worked out at 1.02. For A86G A114C, the self-cleavage worked out at 0.06. For the variant A86G A114U, the self-cleavage came out at 0.03. On to A86G A114G, for which the self-cleavage is 0.48. As for A90U A110G, the self-cleavage was 0.08. Turning to A90U A110U, the self-cleavage is 0.89.

As to A86U A94G, the self-cleavage is 1.72. For the variant A86C U127C, the self-cleavage is 0.83. Regarding U87A A110G, the self-cleavage is 0.15.

For U87A A110C, the self-cleavage turned out to be 0.25. As to A82U A98G, the self-cleavage came to 0.06. In the case of A89G U100A, the self-cleavage was 0.5. Consider A89G U100G, for which the self-cleavage turned out to be 2.03. Consider A89U U133C, for which the self-cleavage came out at 1.97.

Take U87C U100A: the self-cleavage is 0.18.

As to U87C U100C, the self-cleavage was 2.72. As for C88U A94G, the self-cleavage was determined as 1.27.

As to A86G A134G, the self-cleavage came out at 1.25. As for U87G A134G, the self-cleavage was 0.44. Regarding A89C A126U, the self-cleavage stood at 0.86.

As to A89U A91G, the self-cleavage stood at 1.78. To U87C U102A belongs 0.83; to U87C U102G, 0.27; to U87A A134G, 2.21. The same measure for U87A A116G: 0.28; for A90U A94G: 1.48. With A89G U103C, the self-cleavage was found to be 0.55.

G84A U108C: the self-cleavage was 0.01.

In the case of G83A U131C, the self-cleavage worked out at 1.28.

Take G83U C88U: the self-cleavage came out at 1.11.

C85G A86U: the self-cleavage stood at 0.31.

Consider A86U A126G, for which the self-cleavage was 1.63.

With U87A A90G, the self-cleavage worked out at 1.29. On to U87C U132C, for which the self-cleavage was found to be 0.92. To A90G A117U belongs 1.07. A90G A117G: the self-cleavage is 0.83. G84U A110U: the self-cleavage was 0.44. Take U87C G123A: the self-cleavage is 1.78.

On to U87C G123C, for which the self-cleavage amounted to 1.6. To A86U U124A belongs 1.02; to A86G U133C, 2.05; to A86U U130C, 1.44. Take A89U A114G: the self-cleavage amounted to 0.49. The same measure for U87A U100C: 2.28; for A86U U127A: 2.92; for G83U U108C: 0.02. Regarding A90G U130C, the self-cleavage stood at 0.87.

Take A89G A118C: the self-cleavage is 0.01. To A82U U87C belongs 0.22.

For the variant U87C, the self-cleavage came to 0.94. U87G: the self-cleavage is 0.74. With U87A, the self-cleavage was determined as 1.65. On to A86U U108C, for which the self-cleavage was 0.02.

With A89G A95G, the self-cleavage was determined as 1.87. Consider A90G A125G, for which the self-cleavage came to 0.23. Regarding U87C U120A, the self-cleavage is 0.99. In the case of U87C U120C, the self-cleavage was 0.21. The same measure for A89C: 1.54; for A89G: 1.11; for A89U: 1.65. For the variant G83A A118G, the self-cleavage turned out to be 1.41. On to A90G U127C, for which the self-cleavage worked out at 0.13. The same measure for A86G C112A: 0.
